Tested on: MS2 coat protein
Test: apparent KD of MS2 coat protein; designed switch direction (-1 OFF switch, 1 ON switch): -1; higher = weaker reporter binding
Summary of the method: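 For each design, the apparent KD is the median over clusters of curves fitted to normalised cluster fluorescence. Clusters held RNA switches with common flanks, transcribed on Illumina chips by stalled E. coli RNA polymerase. These were titrated with SNAP-549-labelled MS2 coat protein, doubling from 0.7 or 1.5 nM to 3 µM, without input, with 200 uM small-molecule ligand, or with an oligonucleotide input.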

[1] = Eterna round: R95, input ligand: FMN 200 uM
[2] = Eterna round: R95, input ligand: microRNA oligo, concentration not stated
[3] = Eterna round: R95, input ligand: none
[4] = input ligand: microRNA oligo, concentration not stated

| Sequence | apparent KD of MS2 coat protein [2] [nM] | apparent KD of MS2 coat protein (input ligand: FMN 200 uM) [nM] | apparent KD of MS2 coat protein (input ligand: none) [nM] | also measured |
| --- | --- | --- | --- | --- |
| GCCAGAGCAGGAUAUUGAAUAAUUCACAUGAGGAUCACCCAUGUCCAGCGAAAGCUGGAACGAGAAGGGCUCUGGC [Fiskers Ex 5 - 5] (puzzle: Exclusion 5) | 11.7 | – | – | apparent KD of MS2 coat protein [1]: 12.5 nM; apparent KD of MS2 coat protein [3]: 11.1 nM |
| GCCUAACAUGAGGAUCACCCAUGUCAGGAUAUCCAUAAACACCGGGAUGUACUGGACGGGAGAAGGGACAGGGC [Escelazari] (Eterna round: R97, puzzle: Exclusion 1) | – | 53.5 | 51.4 | – |
| ACAUGAGGAUCACCCAUGUAAUCAUGAUGGCUGAUGUAGAGCUAGGAUAUGAGUGGCUUUCUAUCUCAGAAGGAGCUUGACUGG [Deportation 42 - Jieux - Exclusion NG 3] (Eterna round: R96, puzzle: Exclusion NG 3) | – | 28.9 | 37.2 | apparent KD of MS2 coat protein [4]: 25.5 nM |
| CGUUCGCGAGGAUAUGCAUUCGAGUCCACUACGUGUCUGGGACUUGAGGAUCACCCAAGUAGAAGGCGCCUCAC [salish99_ex2_r4_648] (Eterna round: R97, puzzle: Exclusion 2) | – | 83.9 | 135 | – |
| CAAUUCCGAGGAUAUACAUGAGGAUCACCCAUGUCGGGCCUCAGCGUUUAGCGCCUAAGUAGAAGGUGGGUUUC [JL Riri mod 4] (puzzle: Exclusion 3) | 37.1 | – | – | – |
| AAUAACAGAGGAUAUACUAUUUUAUGUAUUUAUUAUUUUGAACAUGAGGAUCACCCAUGUAGAAGGCUGAAUGA [JMF 62] (puzzle: Exclusion 2) | 24.4 | – | – | – |
| CUCGUGUGAGGAUAUCUAUUCCACGGACGGGAGUCUUGAUGAGAGAAGGCACAUGAGGAUCACCCAUGUAAUAA [Laveinxe] (puzzle: Exclusion 4) | 105 | – | – | – |
| UGUGCGUAUGUGAGGAUAUGCUGGUCCUUGGAUCGGCAGAAGGCACAUGAGGAUCACCCAUGUGGUGUCGUACA [salish99_Bmod_ex4_086] (puzzle: Brourd's mod of Exclusion 4) | 204 | – | – | – |
| UCGGGAAGAGGAUAUACAUAGAAAUAGAUUCAUGUAAAACUACAUGAGGAUCACCCAUGUAGAAGGCUUUCCGU [Mat - Exclusion 2 - JL Mod - D55] (Eterna round: R97, puzzle: Exclusion 2) | – | 146 | 24.2 | – |
| UGAGCUUGAGGAUAUACAAGGCGACCGUGAGGUCGAGGGUUACAUGAGGAUCACCCAUGUAGAAGGCAAGUUCU [Mat - Exclusion 2 - JL Mod - D10] (Eterna round: R97, puzzle: Exclusion 2) | – | 460 | 54.3 | – |
| CGGUACUGAGGAUAUACAUGAGGAUCACCCAUGUGUACCAGCUAGCGUACUGGCAUUAGUAGAAGGCGGUGCUG [JL-ex3-3.19 Brourd mod] (puzzle: Exclusion 3) | 14.3 | – | – | apparent KD of MS2 coat protein [1]: 15.7 nM; apparent KD of MS2 coat protein [3]: 13.7 nM |
| UUUUCGUGAGGAUAUCAGUAGUAAAUAAAUAAAAUUACUACUGAGAAGGCACAUGAGGAUCACCCAUGUUCCUU [salish99_ex3_r3_094] (puzzle: Exclusion 4) | 13.6 | – | – | – |
| UACAUGAGGAUCACCCAUGUUUUGUCGUGUAUGGUACCCGUCUAGGAUAUCGUGUUAUUGGACCACGAGAAGGAGAGUAUCAAU [Excl-NG3-LRO02] (Eterna round: R96, puzzle: Exclusion NG 3) | – | 42.6 | 31.7 | apparent KD of MS2 coat protein [4]: 20.3 nM |
| UCGACCGGAGGAUAUCACGUAAAGUACAUGAGGAUCACCCAUGUGUGAUGACUCGAGUCGUGAGAAGGCCGAUAUG [Larausbeer] (puzzle: Exclusion 5) | 65.8 | – | – | – |
| GAGUAGUAAGGAUAUGUCUCUGGUGGCUUCGGUCACUAGAGGCAGAAGGUACAUGAGGAUCACCCAUGUUCCUC [ExDelusion 7 - Jieux - Exclusion 4] (Eterna round: R97, puzzle: Exclusion 4) | – | 220 | 55.2 | – |
| GAUCCUUAAGUCAGGAUAUCAAGCAAACUCUAAAUUGAGAAGGGACAUGAGGAUCACCCAUGUCACCGAAAUAA [Zabema] (puzzle: Brourd's mod of Exclusion 4) | 13 | – | – | – |
| GUAAAGUGAGGAUAUGGUAAAGUAAUUAUUUAGUAAGUAAUCCAGAAGGCACAUGAGGAUCACCCAUGUAAAUG [Mat - Exclusion 4 - D97] (puzzle: Exclusion 4) | 25.7 | – | – | – |
| CUGCUCCGUGUAGGAUAUGCAUACUCCCAUUAUGCAGAAGGACAUGAGGAUCACCCAUGUAUGUUAUUAUCACGUGUAGCGUAC [Design 15] (Eterna round: R96, puzzle: Exclusion NG 1) | – | 104 | 29.9 | apparent KD of MS2 coat protein [4]: 21.2 nM |

| Sequence | apparent KD of MS2 coat protein [2] [nM] | apparent KD of MS2 coat protein (input ligand: FMN 200 uM) [nM] | apparent KD of MS2 coat protein (input ligand: none) [nM] | also measured |
| --- | --- | --- | --- | --- |
| AUCAUAACCUAGGAUAUGUAGCAGCCCGCAGCGACAGAAGGAGGUACAUGAGGAUCACCCAUGUCCACUCCCGU [EX6 C.11] (Eterna round: R97, puzzle: Exclusion 6) | – | 12.4 | 11.8 | – |
| AGCGAAUGAGGAUAUUAUCUCACCUACAUGAGGAUCACCCAUGUGGUCGCACCUGGCGAGUGAGAAGGCAUUCGGA [Eternabot (Original) Solution 41] (Eterna round: R97, puzzle: Exclusion 5) | – | 112 | 49.8 | – |
| CGAGCUUUUUGCUCGUCUUACAUGAGGAUCACCCAUGUCAAACAAACAAACAAACGAAAGUUUGUUUGUUUGUUUGA [Mod of sellena 2] (Eterna round: R97, puzzle: Sensor, turn-off variant 1) | – | 29.4 | 30 | – |
| AUUUAGCAAGCCUGAUCCUACAUGAGGAUCACCCAUGUAGUUCGUCUUAUUUGAAGACAACACAAAAGUGUUGUCUU [Omei Mir OFFv1 B7] (Eterna round: R97, puzzle: Sensor, turn-off variant 1) | – | 18.3 | 18.5 | – |
| UUUUACUCAGGAUAUAUGAUGUGAAACAUGAGGAUCACCCAUGUAAUAUUAUGGAUGUAAAUAGAAGGGAGAUUUU [Mat - Exclusion 5 - JL mod - D17] (puzzle: Exclusion 5) | 62.3 | – | – | apparent KD of MS2 coat protein [1]: 58.8 nM; apparent KD of MS2 coat protein [3]: 78.4 nM |
| CCAGCGUAUGUGAGGAUAUGCUGGUCCUUGGAUCAGCAGAAGGCACAUGAGGAUCACCCAUGUGAUAACGUUGG [JL bmx4 3.39] (puzzle: Brourd's mod of Exclusion 4) | 46.6 | – | – | – |
| UUUUGCAAGCAAAUUGUCAACAUGAGGAUCACCCAUGUGGAAGCCUUGGAGGGUGGGACCGUAAGUAGAGCUCGUUU [Eternabot (L2) Solution 34] (Eterna round: R97, puzzle: Sensor, turn-off variant 1) | – | 38.1 | 39.2 | – |
| ACUUAUUGAGGAUAUACAUUAAAUUACAUGAGGAUCACCCAUGUUCUUCAAUGUAUAUAUGCAGAAGGCAGAAGAA [JL-ex5-4.28 Malcolm mod] (Eterna round: R97, puzzle: Exclusion 5) | – | 13.4 | 12.8 | – |
| UUUAAUUUUUUUUUUUUACAAGCUUUUUGCUCGUCUUAUACAUGAGGAUCACCCAUGUAAGUGGAGGAUAAAUUAUC [JMF 33] (puzzle: Sensor v3, turn-off variant 2) | 23.8 | – | – | apparent KD of MS2 coat protein [1]: 24.7 nM; apparent KD of MS2 coat protein [3]: 24.1 nM |
| CGUGAGCGCGUCAGGAUAUGGCGGCGGCGGCGGCGCCAGAAGGGACAUGAGGAUCACCCAUGUUGCGUGCGUGG [Prefect Broudrd's mod of Exclusion] (Eterna round: R97, puzzle: Brourd's mod of Exclusion 4) | – | 73 | 39.3 | – |
| AUGGGUCCUCACGGAGCUACAUGAGGAUCACCCAUGUGGAUUGAGGAUAUCGACAGCCGACGGCUCGAGAAGGCAGUUUACUGU [Ex NG3 #96] (Eterna round: R96, puzzle: Exclusion NG 3) | – | 35 | 26.4 | apparent KD of MS2 coat protein [4]: 23.2 nM |
| AUUGUAUAGGAAGGAUAUAGAAUAUUAUUUUAACAUGAGGAUCACCCAUGUAACCUUAUGUGUAGCUAGAAGGUCCAUUUAUUA [Title] (Eterna round: R96, puzzle: Exclusion NG 2) | – | – | – | apparent KD of MS2 coat protein [4]: 90.2 nM |
| GAUGUACAUGAGGAUCACCCAUGUCAGGAUAUUAGGCGCCCUCAUAGCAGGGCCAUGAUGAGAAGGGACAGUAC [Eternabot (L2) Solution 33] (Eterna round: R97, puzzle: Exclusion 1) | – | 67.6 | 66.4 | – |
| AGCUAGUCAGGAUAUUCUAAAAAUUACAUGAGGAUCACCCAUGUGAAUGGACAAGGGUGUGAAGAAGGGACUAGCG [Omei Ex5 A11] (Eterna round: R97, puzzle: Exclusion 5) | – | 214 | 540 | – |
| UUUUAACAUGAGGAUCACCCAUGUGAGGAUAUGGUUUUUUUUUUUUUUUUUUUUUUUUCCAGAAGGCACAUUUU [My solution] (Eterna round: R96, puzzle: Exclusion 1) | – | 269 | 31.6 | apparent KD of MS2 coat protein [4]: 44.2 nM |
| GAUUGAGAAGGAUAUACAUGAGGAUCACCCAUGUGCUUCAGCUAGGAGACUAGCAUUGGUAGAAGGUCUUAAUC [Mod of lroppy 15 - Jieux - Exclusion 3] (Eterna round: R97, puzzle: Exclusion 3) | – | 69.7 | 19.2 | – |
| AAAACUUUGAGAGGAUAUCUGAAAGGAAGUGUAAGAGAAGGCUCAGAGGACAUGAGGAUCACCCAUGUACGUCAUGGGCUCCGA [PowerStrip EXNG 1.15] (Eterna round: R96, puzzle: Exclusion NG 1) | – | 49.8 | 111 | apparent KD of MS2 coat protein [4]: 39.6 nM |
